Results as given in patent US20170267761A1 (H LUNDBECK A S, published 2017).

B1: 1289 (antibody, V domains shown)
VH: EVQLLESGGGLVQPGGSLRLSCAASGFTFSSFAMSWVRQAPGKGLEWVSAISGSGGSTYYADSVKGRFTISRDNSKNTLSLQMNSLRAEDTAVYYCATPITLVRGVGAFDIWGQGTMVTVSS
VL: not shown
notes: the sheets print 1289 only, the text names its one 1289 antibody 1289-02; also called IgG1-6003-1289; Antibody 1289-02
B2: 1320 (antibody, V domains shown)
VH: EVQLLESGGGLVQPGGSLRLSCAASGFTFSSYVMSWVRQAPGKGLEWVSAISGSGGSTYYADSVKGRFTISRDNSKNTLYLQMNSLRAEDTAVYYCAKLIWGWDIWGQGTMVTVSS
VL: EIVLTQSPATLSLSPGERATLSCRASQSVSSYLAWYQQRPGQAPRLLIYDASNRATGIPARFSGSGSGTDFTLSISSLEPEDFAVYYCQQRTNWSITFGQGTRLEIK
notes: also called Antibody 1320; Ab 1320

Molecular target: T1, Sortilin SORTECD_HIS (human, UniProt Q99523 78-755)
T1 construct: also called Sortilin-ECD-His; HIS-tagged Sortilin ECD
T1 sequence: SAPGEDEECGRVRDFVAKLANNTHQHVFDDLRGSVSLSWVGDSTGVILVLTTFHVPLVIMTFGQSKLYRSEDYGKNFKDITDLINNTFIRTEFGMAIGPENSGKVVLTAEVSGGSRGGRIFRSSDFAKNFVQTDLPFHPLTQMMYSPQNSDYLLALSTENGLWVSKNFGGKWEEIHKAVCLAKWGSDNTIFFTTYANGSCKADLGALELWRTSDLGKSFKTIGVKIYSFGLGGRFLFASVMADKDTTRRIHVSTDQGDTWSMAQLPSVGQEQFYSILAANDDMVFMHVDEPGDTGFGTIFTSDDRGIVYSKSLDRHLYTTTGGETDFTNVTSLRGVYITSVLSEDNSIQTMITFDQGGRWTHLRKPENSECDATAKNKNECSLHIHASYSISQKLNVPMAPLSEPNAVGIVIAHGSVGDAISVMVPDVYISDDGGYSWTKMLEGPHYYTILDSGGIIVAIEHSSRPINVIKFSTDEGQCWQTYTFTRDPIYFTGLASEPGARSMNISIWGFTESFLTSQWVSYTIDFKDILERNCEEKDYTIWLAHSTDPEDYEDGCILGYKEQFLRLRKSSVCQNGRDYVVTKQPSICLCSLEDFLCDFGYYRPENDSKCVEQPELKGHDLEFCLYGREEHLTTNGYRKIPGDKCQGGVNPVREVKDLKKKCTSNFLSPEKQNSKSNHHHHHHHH
Assay: HTRF, displacement of PGRN from His-tagged Sortilin ECD
Method: Dose-response evaluation of antibodies was performed with ten concentrations covering 50 pM to 1 μM in a 3-fold dilution curve. The half-maximal inhibitory concentration (IC50) values were calculated by non-linear regression using sigmoidal concentration response (variable slope) in XLfit 4 (IDBS, UK).
Experiments were performed in assay buffer (50 mM Phosphate, pH 7.0, 0.1% BSA) in a total volume of 20 μl in a Greiner 384 well, white, low volume microtiter plate, (784075, Greiner).

Binder | % inh highest conc
B1 | 98%
B2 | 75%
